US20240018201A1

Tests used:
[1] = biological target: human TNF alpha (Miltenyi, from yeast, Catalog no. 130-094) (human) (UniProt P01375); test: SPR, Biacore 8K
[2] = biological target: Llama Anti-human LC-kappa VHH Single Domain Antibody [Biotin] (CAT #: NABG-118); test: BLI, biotinylated VHH ligand on streptavidin biosensor
[3] = biological target: human TNF alpha (Miltenyi, from yeast, Catalog no. 130-094) (human) (UniProt P01375); test: SPR, Biacore 8K (column head prints nM; koff/kon gives this number in M)

Chain of UniProt P01375 (P01375 77-233 limits assumed): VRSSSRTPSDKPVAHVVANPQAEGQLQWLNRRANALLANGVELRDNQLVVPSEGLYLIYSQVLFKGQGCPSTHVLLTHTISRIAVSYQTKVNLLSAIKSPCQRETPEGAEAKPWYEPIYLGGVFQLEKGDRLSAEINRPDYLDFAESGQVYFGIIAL

Substance	% KD to wildtype [1]	% koff to wildtype [1]	% kon to wildtype [1]	koff [1]	kon [1]	% Response BLI of construct in comparison to wildtype (=% Binding to Kappa-ligand) [2]	Kd [3]
Adalimumab variant with Thr109Arg + Ser202Arg light chains (L234A/L235A Fc) (antibody)	110%	90.5%	90.5%	0.000216 s⁻¹	3.71e+06 M⁻¹ s⁻¹	12.5%	0.0583 nM
Adalimumab variant with His198Arg light chains (L234A/L235A Fc) (antibody)	104%	92.7%	92.7%	0.00021 s⁻¹	3.8e+06 M⁻¹ s⁻¹	7.87%	0.0553 nM
Adalimumab variant with Gln199Trp light chains (L234A/L235A Fc) (antibody)	99.4%	96.1%	96.1%	0.000208 s⁻¹	3.94e+06 M⁻¹ s⁻¹	1.66%	0.0528 nM
Adalimumab with WT light chain (no mutations) and L234A/L235A human IgG Fc variant (antibody)						100%	0.0531 nM
